Experiment [1] deals with NatA complex (His6-Naa15-Naa10ΔC-His6) (Chaetomium thermophilum). Description: SEC-MALS; NatA-HypK complex (0.2 mg) on Superdex 200 10/300 in SEC buffer coupled to MALS. A general note: In gel filtration, larger molecules generally elute earlier.
For experiment [2], the target named is T1, NatA complex (Naa15-Naa10ΔC-His6) (Chaetomium thermophilum).
T1 chain 1: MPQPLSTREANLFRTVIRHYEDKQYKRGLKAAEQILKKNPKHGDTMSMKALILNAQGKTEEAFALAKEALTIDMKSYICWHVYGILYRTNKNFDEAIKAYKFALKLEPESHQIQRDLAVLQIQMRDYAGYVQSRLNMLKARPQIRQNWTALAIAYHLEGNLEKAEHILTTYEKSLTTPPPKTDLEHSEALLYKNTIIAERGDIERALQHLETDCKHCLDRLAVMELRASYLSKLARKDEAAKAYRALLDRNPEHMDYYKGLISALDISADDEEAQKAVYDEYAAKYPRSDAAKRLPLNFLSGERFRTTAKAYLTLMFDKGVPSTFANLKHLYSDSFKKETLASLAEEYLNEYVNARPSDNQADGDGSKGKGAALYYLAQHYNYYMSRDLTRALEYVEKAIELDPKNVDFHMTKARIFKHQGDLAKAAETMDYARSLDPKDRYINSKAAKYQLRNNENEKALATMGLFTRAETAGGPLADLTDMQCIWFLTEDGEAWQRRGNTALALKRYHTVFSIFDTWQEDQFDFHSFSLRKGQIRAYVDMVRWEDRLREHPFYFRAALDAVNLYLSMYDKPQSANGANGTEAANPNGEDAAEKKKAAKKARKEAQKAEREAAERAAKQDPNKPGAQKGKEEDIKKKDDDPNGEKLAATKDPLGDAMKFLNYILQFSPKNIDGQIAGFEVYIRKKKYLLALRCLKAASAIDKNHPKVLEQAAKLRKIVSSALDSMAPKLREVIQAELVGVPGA
T1 chain 2: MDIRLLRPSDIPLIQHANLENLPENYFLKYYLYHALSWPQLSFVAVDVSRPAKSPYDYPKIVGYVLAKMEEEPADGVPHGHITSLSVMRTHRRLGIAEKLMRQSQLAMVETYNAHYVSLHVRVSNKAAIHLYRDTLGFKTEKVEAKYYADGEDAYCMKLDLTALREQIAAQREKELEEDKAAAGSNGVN
Description: ITC; HypK-StrepII variants (100-400 μM) in the syringe, preformed NatA (Naa15-Naa10ΔC-His6, 10-40 μM) in the cell; 25 °C; 20 mM HEPES pH 7.5, 150 mM NaCl, 10 mM MgCl2, 10 mM KCl; single-site model; triplicates. (In ITC the heat of successive injections is recorded.)

For experiment [3], the target named is T1, NatA complex (Naa15-Naa10ΔC-His6). Description: ITC.

“His6-HypK (full length) (natural protein)”: the stoichiometry N – broadly, a count of units in the complex or per binding partner – in experiment [1] worked out at 1. As to “HypK-StrepII (full length) (natural protein)”, the Kd (commonly the concentration at which binding is half-saturated) in experiment [2] was 0.0383 µM.

B1: HypKΔN50-StrepII (domain or fragment)
chain: MAPAREVDQEAVKNAMSALSGASTEKKEVKKVKVDPADVNLLVEELELSKAKATELLKAHDGDAIKAMKAYIQPAF
Molecule B1 gave an equilibrium dissociation constant (Kd) in experiment [3] of 0.0286 µM.

B2: HypK-THB-StrepII (domain or fragment)
chain: GAMGKVDPADVNLLVEELELSKAKATELLKAHDGDAIKAMKAYIQPAFGSGSGSWSHPQFEK
B2: binding in experiment [3] was put at a Kd of 0.0469 µM.

The values above are taken from publication PMC5467210 (2017).
